According to patent US20230265404, “ENGINEERED MAD7 DIRECTED ENDONUCLEASE” (BIO-TECHNE CORPORATION, published 2023):

Target: T1, MAD7 E962Q (dead MAD7) (Eubacterium rectale, E962Q)
T1 chain: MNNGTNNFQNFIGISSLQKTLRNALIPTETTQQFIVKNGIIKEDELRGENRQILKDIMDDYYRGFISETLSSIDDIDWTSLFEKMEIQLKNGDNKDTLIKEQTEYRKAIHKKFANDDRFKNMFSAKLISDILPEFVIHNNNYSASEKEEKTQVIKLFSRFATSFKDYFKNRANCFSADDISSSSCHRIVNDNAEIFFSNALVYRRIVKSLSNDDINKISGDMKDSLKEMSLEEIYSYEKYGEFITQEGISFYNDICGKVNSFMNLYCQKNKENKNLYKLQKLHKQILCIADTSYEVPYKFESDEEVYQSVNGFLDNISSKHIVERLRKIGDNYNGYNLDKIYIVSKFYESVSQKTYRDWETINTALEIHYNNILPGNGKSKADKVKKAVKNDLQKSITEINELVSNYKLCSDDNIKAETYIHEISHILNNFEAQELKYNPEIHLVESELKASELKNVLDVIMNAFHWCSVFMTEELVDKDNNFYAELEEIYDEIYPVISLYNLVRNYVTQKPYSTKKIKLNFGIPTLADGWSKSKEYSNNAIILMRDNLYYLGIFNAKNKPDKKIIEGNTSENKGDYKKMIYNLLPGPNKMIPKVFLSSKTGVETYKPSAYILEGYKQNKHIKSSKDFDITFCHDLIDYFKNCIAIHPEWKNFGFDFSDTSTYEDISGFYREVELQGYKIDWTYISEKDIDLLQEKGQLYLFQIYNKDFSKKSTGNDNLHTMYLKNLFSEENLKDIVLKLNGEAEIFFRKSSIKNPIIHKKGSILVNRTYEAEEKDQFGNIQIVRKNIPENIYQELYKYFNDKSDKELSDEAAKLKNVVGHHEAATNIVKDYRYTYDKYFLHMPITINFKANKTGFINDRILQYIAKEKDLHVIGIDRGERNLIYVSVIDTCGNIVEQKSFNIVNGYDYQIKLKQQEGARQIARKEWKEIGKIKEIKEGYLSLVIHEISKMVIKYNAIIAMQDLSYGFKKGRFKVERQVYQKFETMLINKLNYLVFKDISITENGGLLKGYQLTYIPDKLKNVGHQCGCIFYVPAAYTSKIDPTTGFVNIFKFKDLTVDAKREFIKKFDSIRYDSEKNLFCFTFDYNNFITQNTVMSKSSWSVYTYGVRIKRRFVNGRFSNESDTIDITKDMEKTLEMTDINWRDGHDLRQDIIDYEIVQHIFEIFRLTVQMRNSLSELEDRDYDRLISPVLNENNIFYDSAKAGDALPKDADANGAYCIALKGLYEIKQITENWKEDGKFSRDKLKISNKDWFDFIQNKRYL
Test: EMSA; bound without cutting; PAM TTTA (5', from target sequence); NEB3.1, salmon sperm DNA competitor, 37 C
Details: tags: C-terminal 6xHis
Experimental: To evaluate catalytic activity the modified MAD7 enzyme, an electrophoretic mobility shift assay (EMSA) was performed. The following reagents were used: [0142] […] salmon sperm DNA (United States Biological D3950-02 DNA, Salmon [0143] (Deoxyribonucleic acid) CAS: 9007-49-2 [0144] 100 pmol MAD7 variant [0145] 5 pmol double stranded, 6FAM labeled target (created as described above) [0146] 50 pmol MAD7 PPIB gRNA [0147] 2 μL NEB3.1 10X (New England Biolabs) [0148] 20 μL total reaction
The MAD7 variant was incubated with MAD7 PPIB gRNA at 37° C. for 15 minutes. Other reagents were added and incubated 37° for 30 minutes. Reactions were analyzed by gel electrophoresis. Samples were run on a 5% Mini-PROTEAN TBE Mini-Gels (Bio-Rad). Gels were pre-run for 15 minutes at 100V in 0.5X TBE running buffer, samples were loaded and run at 200V for 15 minutes. Gels were imaged with ProteinSimple FluorChem M system using blue excitation and green emission filter to detect 6FAM label. Gel was then stained for 15 minutes in ethidium bromide solution and imaged again using blue excitation and orange emission filter to detect DNA, finally the gel was stained with Coomassie stain and imaged with white light. […]

B1: MAD7 PPIB gRNA ; 6FAM PPIB target duplex (ssRNA ; dsDNA)
RNA: UAAUUUCUACUCUUGUAGAUCCGUCACCAAAAUCAGAUUCA
DNA 1: AGATTCTCATAGGATTTTTACCGTCACCAAAATCAGATTCAGAACCACTTCTCTAAA
DNA 2: TTTAGAGAAGTGGTTCTGAATCTGATTTTGGTGACGGTAAAAATCCTATGAGAATCT
  binding result: binds
